The source of these data is IntAct's records for PubMed 19103591.

B1: Sigma-E factor regulatory protein RseB (Escherichia coli (strain K12)), P0AFX9 (parent)
chain: MKQLWFAMSLVTGSLLFSANASATPASGALLQQMNLASQSLNYELSFISINKQGVESLRYRHARLDNRPLAQLLQMDGPRREVVQRGNEISYFEPGLEPFTLNGDYIVDSLPSLIYTDFKRLSPYYDFISVGRTRIADRLCEVIRVVARDGTRYSYIVWMDTESKLPMRVDLLDRDGETLEQFRVIAFNVNQDISSSMQTLAKANLPPLLSVPVGEKAKFSWTPTWLPQGFSEVSSSRRPLPTMDNMPIESRLYSDGLFSFSVNVNRATPSSTDQMLRTGRRTVSTSVRDNAEITIVGELPPQTAKRIAENIKFGAAQ
partner: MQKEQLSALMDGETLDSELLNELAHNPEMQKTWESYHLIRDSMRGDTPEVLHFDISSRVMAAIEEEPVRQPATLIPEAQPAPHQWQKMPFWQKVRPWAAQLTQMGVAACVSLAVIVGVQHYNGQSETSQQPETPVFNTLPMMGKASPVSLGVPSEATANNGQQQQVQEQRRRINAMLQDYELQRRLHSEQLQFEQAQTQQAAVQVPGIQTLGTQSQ
B2: Anti-sigma-E factor RseA (Escherichia coli (strain K12)), P0AFX7 (parent)
chain: B1 partner
partner: B1 chain

The first test covers variants of B1. As to conditions: with rsea_ecoli rseA.
For the variant MKQLWFAMSLVTGSLLFSANASATPASGALLQQMNLASQSLNYELSFISINKQGVESLRYRHARLDNRPLAQLLQMDGPRREVVQRGNEISYFEPGLEPFTLNGDYIVDSLPSLIYTDFKRLSPYYDFISVGRTRIADRLCEVIRVVARDGTRYSYIVWMDTESKLPMRVDLLDRAGETLEQFRVIAFNVNQDISSSMQTLAKANLPPLLSVPVGEKAKFSWTPTWLPQGFSEVSSSRRPLPTMDNMPIESRLYSDGLFSFSVNVNRATPSSTDQMLRTGRRTVSTSVRDNAEITIVGELPPQTAKRIAENIKFGAAQ [D176A], the “effect of a mutation on the interaction” value was “decreasing interaction”.

MKQLWFAMSLVTGSLLFSANASATPASGALLQQMNLASQSLNYELSFISINKQGVESLRYRHARLDNRPLAQLLQMDGPRREVVQRGNEISYFEPGLEPFTLNGDYIVDSLPSLIYTDFKRLSPYYDFISVGRTRIADRLCEVIRVVARDGTRYSYIVWMDTESKLPMRVDLLDRDGETLEQFRVIAFNVNQDISSSMQTLAKANLPPLLSVPVGEKAKFSWTPTWLPQGFSEVSSSRRPLPTMDNMPIASRLYSDGLFSFSVNVNRATPSSTDQMLRTGRRTVSTSVRDNAEITIVGELPPQTAKRIAENIKFGAAQ [E250A]: the “effect of a mutation on the interaction” value is reported as “decreasing interaction”.

MKQLWFAMSLVTGSLLFSANASATPASGALLQQMNLASQSLNYELSFISINKQGVESLRYRHARLDNRPLAQLLQMDGPRREVVQRGNEISYFEPGLEPFTLNGDYIVDSLPSLIYTDFKRLSPYYDFISVGRTRIADRLCEVIRVVARDGTRYSYIVWMDTESKLPMRVDLLDRDGETLEQFRVIAFNVNQDISSSMQTLAKANLPPLLSVPVGEKAKFSWTPTWLPQGFSEVSSSRRPLPTMAAMPAASRLYSDGLFSFSVNVNRATPSSTDQMLRTGRRTVSTSVRDNAEITIVGELPPQTAKRIAENIKFGAAQ [D245A;N246A;I249A;E250A]: the “effect of a mutation on the interaction” value was “decreasing interaction”.

Regarding MKQLWFAMSLVTGSLLFSANASATPASGALLQQMNLASQSLNYELSFISINKQGVESLRYRHARLDNRPLAQLLQMDGPRREVVQRGNEISYFEPGLEPFTLNGDYIVDSLPSLIYTDFKRLSPYYDFISVGRTRIADRLCEVIRVVARDGTRYSYIVWMDTESKLPMRVDLLDRDGETLEAFRVIAFNVNQDISSSMQTLAKANLPPLLSVPVGEKAKFSWTPTWLPQGFSEVSSSRRPLPTMDNMPIESRLYSDGLFSFSVNVNRATPSSTDQMLRTGRRTVSTSVRDNAEITIVGELPPQTAKRIAENIKFGAAQ [Q182A], the “effect of a mutation on the interaction” value was “decreasing interaction”.

Consider MKQLWFAMSLVTGSLLFSANASATPASGALLQQMNLASQSLNYELSFISINKQGVESLRYRHARLDNRPLAQLLQMDGPRREVVQRGNEISYFEPGLEPFTLNGDYIVDSLPSLIYTDFKRLSPYYDFISVGRTRIADRLCEVIRVVARDGTRYSYIVWMDTESKLPMRVALLDRDGETLEQFRVIAFNVNQDISSSMQTLAKANLPPLLSVPVGEKAKFSWTPTWLPQGFSEVSSSRRPLPTMDNMPIESRLYSDGLFSFSVNVNRATPSSTDQMLRTGRRTVSTSVRDNAEITIVGELPPQTAKRIAENIKFGAAQ [D171A], for which the “effect of a mutation on the interaction” value is recorded as “decreasing interaction”.

For MKQLWFAMSLVTGSLLFSANASATPASGALLQQMNLASQSLNYELSFISINKQGVESLRYRHARLDNRPLAQLLQMDGPRREVVQRGNEISYFEPGLEPFTLNGDYIVDSLPSLIYTDFKRLSPYYDFISVGRTRIADRLCEVIRVVARDGTRYSYIVWMDTESKLPMRVDLLDRDGETLEQFRVIAFNVNQDISSSMQTLAKANLPPLLSVPVGEKAKFSWTPTWLPQGFSEVSSSRRPLPTMDNMPAESRLYSDGLFSFSVNVNRATPSSTDQMLRTGRRTVSTSVRDNAEITIVGELPPQTAKRIAENIKFGAAQ [I249A], the “effect of a mutation on the interaction” value is on record as “decreasing interaction”.

As for MKQLWFAMSLVTGSLLFSANASATPASGALLQQMNLASQSLNYELSFISINKQGVESLRYRHARLDNRPLAQLLQMDGPRREVVQRGNEISYFEPGLEPFTLNGDYIVDSLPSLIYTDFKRLSPYYDFISVGRTRIADRLCEVIRVVARDGTRYSYIVWMDTESKLPMRVDLLDRDGATLEQFRVIAFNVNQDISSSMQTLAKANLPPLLSVPVGEKAKFSWTPTWLPQGFSEVSSSRRPLPTMDNMPIESRLYSDGLFSFSVNVNRATPSSTDQMLRTGRRTVSTSVRDNAEITIVGELPPQTAKRIAENIKFGAAQ [E178A], the “effect of a mutation on the interaction” value is listed as “decreasing interaction”.

Consider MKQLWFAMSLVTGSLLFSANASATPASGALLQQMNLASQSLNYELSFISINKQGVESLRYRHARLDNRPLAQLLQMDGPRREVVQRGNEISYFEPGLEPFTLNGDYIVDSLPSLIYTDFKRLSPYYDFISVGRTRIADRLCEVIRVVARDGTRYSYIVWMDTESKLPMRVDLLDRDGETLEQFRVIAFNVNQDISSSMQTLAKANLPPLLSVPVGEKAKFSWTPTWLPQGFSEVSSSRRPLPTMDNMPAASRLYSDGLFSFSVNVNRATPSSTDQMLRTGRRTVSTSVRDNAEITIVGELPPQTAKRIAENIKFGAAQ [I249A;E250A], for which the “effect of a mutation on the interaction” value is reported as “decreasing interaction”.

As for MKQLWFAMSLVTGSLLFSANASATPASGALLQQMNLASQSLNYELSFISINKQGVESLRYRHARLDNRPLAQLLQMDGPRREVVQRGNEISYFEPGLEPFTLNGDYIVDSLPSLIYTDFKRLSPYYDFISVGRTRIADRLCEVIRVVARDGTRYSYIVWMDTESKLPMRVDLLDRDGETLEQFRVIAFNVNQDISSSMQTLAKANLPPLLSVPVGEKAKFSWTPTWLPQGFSEVSSSAAPLPTMDNMPIESRLYSDGLFSFSVNVNRATPSSTDQMLRTGRRTVSTSVRDNAEITIVGELPPQTAKRIAENIKFGAAQ [R238A;R239A], the “effect of a mutation on the interaction” value is recorded as “decreasing interaction”.

The variants in the next test derive from B1. The note with it: with rsea_ecoli rseA. The source holds these as a separate data set.
Consider MKQLWFAMSLVTGSLLFSANASATPASGALLQQMNLASQSLNYELSFISINKQGVESLRYRHARLDNRPLAQLLQMDGPRREVVQRGNEISYFEPGLEPFTLNGDYIVDSLPSLIYTDFKRLSPYYDFISVGRTRIADRLCEVIRVVARDGTRYSYIVWMDTESKLPMRVDLLDRDGETLAQFRVIAFNVNQDISSSMQTLAKANLPPLLSVPVGEKAKFSWTPTWLPQGFSEVSSSRRPLPTMDNMPIESRLYSDGLFSFSVNVNRATPSSTDQMLRTGRRTVSTSVRDNAEITIVGELPPQTAKRIAENIKFGAAQ [E181A], for which the “effect of a mutation on the interaction” value is recorded as “decreasing interaction”.

For the variant MKQLWFAMSLVTGSLLFSANASATPASGALLQQMNLASQSLNYELSFISINKQGVESLRYRHARLDNRPLAQLLQMDGPRREVVQRGNEISYFEPGLEPFTLNGDYIVDSLPSLIYTDFKRLSPYYDFISVGRTRIADRLCEVIRVVARDGTRYSYIVWMDTESKLPMRVDLLARDGETLEQFRVIAFNVNQDISSSMQTLAKANLPPLLSVPVGEKAKFSWTPTWLPQGFSEVSSSRRPLPTMDNMPIESRLYSDGLFSFSVNVNRATPSSTDQMLRTGRRTVSTSVRDNAEITIVGELPPQTAKRIAENIKFGAAQ [D174A], the “effect of a mutation on the interaction” value is “decreasing interaction”.

Another test covers variants of B2. As to conditions: with rseb_ecoli rseB.
In the case of MQKEQLSALMDGETLDSELLNELAHNPEMQKTWESYHLIRDSMRGDTPEVLHFDISSRVMAAIEEEPVRQPATLIPEAQPAPHQWQKMPFWQKVRPWAAQLTQMGVAACVSLAVIVGVQHYNGQSETSQQPETPVFNTLPMMGKASPVSLGVPSEATANNGQQQQVQEQRRRINAMLQAYELQRRLHSEQLQFEQAQTQQAAVQVPGIQTLGTQSQ [D179A], the “effect of a mutation on the interaction” value is on record as “decreasing interaction”.

As for MQKEQLSALMDGETLDSELLNELAHNPEMQKTWESYHLIRDSMRGDTPEVLHFDISSRVMAAIEEEPVRQPATLIPEAQPAPHQWQKMPFWQKVRPWAAQLTQMGVAACVSLAVIVGVQHYNGQSETSQQPETPVFNTLPMMGKASPVSLGVPSEATANNGQQQQVQEQRRRINAMAQDYELQRRLHSEQLQFEQAQTQQAAVQVPGIQTLGTQSQ [L177A], the “effect of a mutation on the interaction” value is recorded as “decreasing interaction”.

For MQKEQLSALMDGETLDSELLNELAHNPEMQKTWESYHLIRDSMRGDTPEVLHFDISSRVMAAIEEEPVRQPATLIPEAQPAPHQWQKMPFWQKVRPWAAQLTQMGVAACVSLAVIVGVQHYNGQSETSQQPETPVFNTLPMMGKASPVSLGVPSEATANNGQQQQVQEQRRRINAMLADYELQRRLHSEQLQFEQAQTQQAAVQVPGIQTLGTQSQ [Q178A], the “effect of a mutation on the interaction” value is on record as “decreasing interaction”.

In the case of MQKEQLSALMDGETLDSELLNELAHNPEMQKTWESYHLIRDSMRGDTPEVLHFDISSRVMAAIEEEPVRQPATLIPEAQPAPHQWQKMPFWQKVRPWAAQLTQMGVAACVSLAVIVGVQHYNGQSETSQQPETPVFNTLPMMGKASPVSLGVPSEATANNGQQQQVQEQRRRINAALQDYELQRRLHSEQLQFEQAQTQQAAVQVPGIQTLGTQSQ [M176A], the “effect of a mutation on the interaction” value is given as “decreasing interaction”.

On to MQKEQLSALMDGETLDSELLNELAHNPEMQKTWESYHLIRDSMRGDTPEVLHFDISSRVMAAIEEEPVRQPATLIPEAQPAPHQWQKMPFWQKVRPWAAQLTQMGVAACVSLAVIVGVQHYNGQSETSQQPETPVFNTLPMMGKASPVSLGVPSEATANNGQQQQVQEQRRRINAMLQDYELARRLHSEQLQFEQAQTQQAAVQVPGIQTLGTQSQ [Q183A], for which the “effect of a mutation on the interaction” value is listed as “decreasing interaction”.

Consider MQKEQLSALMDGETLDSELLNELAHNPEMQKTWESYHLIRDSMRGDTPEVLHFDISSRVMAAIEEEPVRQPATLIPEAQPAPHQWQKMPFWQKVRPWAAQLTQMGVAACVSLAVIVGVQHYNGQSETSQQPETPVFNTLPMMGKASPVSLGVPSEATANNGQQQQVQEQRRRIAAMLQDYELQRRLHSEQLQFEQAQTQQAAVQVPGIQTLGTQSQ [N174A], for which the “effect of a mutation on the interaction” value is “decreasing interaction”.

On to MQKEQLSALMDGETLDSELLNELAHNPEMQKTWESYHLIRDSMRGDTPEVLHFDISSRVMAAIEEEPVRQPATLIPEAQPAPHQWQKMPFWQKVRPWAAQLTQMGVAACVSLAVIVGVQHYNGQSETSQQPETPVFNTLPMMGKASPVSLGVPSEATANNGQQQQVQEQRRRINAMLQDYEAQRRLHSEQLQFEQAQTQQAAVQVPGIQTLGTQSQ [L182A], for which the “effect of a mutation on the interaction” value is reported as “decreasing interaction”.

Consider MQKEQLSALMDGETLDSELLNELAHNPEMQKTWESYHLIRDSMRGDTPEVLHFDISSRVMAAIEEEPVRQPATLIPEAQPAPHQWQKMPFWQKVRPWAAQLTQMGVAACVSLAVIVGVQHYNGQSETSQQPETPVFNTLPMMGKASPVSLGVPSEATANNGQQQQVQEQRRRINAMLQDYALQRRLHSEQLQFEQAQTQQAAVQVPGIQTLGTQSQ [E181A], for which the “effect of a mutation on the interaction” value is given as “decreasing interaction”.

Turning to MQKEQLSALMDGETLDSELLNELAHNPEMQKTWESYHLIRDSMRGDTPEVLHFDISSRVMAAIEEEPVRQPATLIPEAQPAPHQWQKMPFWQKVRPWAAQLTQMGVAACVSLAVIVGVQHYNGQSETSQQPETPVFNTLPMMGKASPVSLGVPSEATANNGQQQQVQEQRRRINAMLQDAELQRRLHSEQLQFEQAQTQQAAVQVPGIQTLGTQSQ [Y180A], the “effect of a mutation on the interaction” value is “decreasing interaction”.
